According to patent publication US11643467 (dated 2023):

Experiments:
Assay in all cases: ELISA
FGFR3-Fc = target: T1, FGFR3-Fc (human, UniProt P22607)
T1 chain: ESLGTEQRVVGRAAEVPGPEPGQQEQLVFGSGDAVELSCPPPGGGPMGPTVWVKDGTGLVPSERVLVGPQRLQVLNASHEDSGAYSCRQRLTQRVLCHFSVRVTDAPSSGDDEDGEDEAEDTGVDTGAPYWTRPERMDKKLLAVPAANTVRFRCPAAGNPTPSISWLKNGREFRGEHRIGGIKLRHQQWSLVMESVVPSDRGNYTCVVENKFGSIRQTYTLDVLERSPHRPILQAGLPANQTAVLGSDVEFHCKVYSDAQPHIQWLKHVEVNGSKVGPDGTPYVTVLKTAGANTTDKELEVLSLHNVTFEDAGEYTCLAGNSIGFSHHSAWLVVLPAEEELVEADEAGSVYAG

FGFR2-Fc = FGFR2-Fc (human, UniProt P21802)
FGFR1-Fc = target: T2, FGFR1-Fc (human, UniProt P11362)
T2 chain: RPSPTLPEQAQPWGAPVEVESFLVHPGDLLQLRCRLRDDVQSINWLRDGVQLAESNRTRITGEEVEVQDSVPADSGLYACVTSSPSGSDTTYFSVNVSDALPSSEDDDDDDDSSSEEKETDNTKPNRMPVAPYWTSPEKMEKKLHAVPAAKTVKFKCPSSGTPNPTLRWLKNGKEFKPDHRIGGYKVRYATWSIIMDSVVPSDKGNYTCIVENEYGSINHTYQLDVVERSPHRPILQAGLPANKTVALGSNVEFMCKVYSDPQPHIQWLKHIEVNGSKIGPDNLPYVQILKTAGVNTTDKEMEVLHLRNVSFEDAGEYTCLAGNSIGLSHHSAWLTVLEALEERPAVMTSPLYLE

Measured: binding result

Chain of FGFR2-Fc (P21802 22-377): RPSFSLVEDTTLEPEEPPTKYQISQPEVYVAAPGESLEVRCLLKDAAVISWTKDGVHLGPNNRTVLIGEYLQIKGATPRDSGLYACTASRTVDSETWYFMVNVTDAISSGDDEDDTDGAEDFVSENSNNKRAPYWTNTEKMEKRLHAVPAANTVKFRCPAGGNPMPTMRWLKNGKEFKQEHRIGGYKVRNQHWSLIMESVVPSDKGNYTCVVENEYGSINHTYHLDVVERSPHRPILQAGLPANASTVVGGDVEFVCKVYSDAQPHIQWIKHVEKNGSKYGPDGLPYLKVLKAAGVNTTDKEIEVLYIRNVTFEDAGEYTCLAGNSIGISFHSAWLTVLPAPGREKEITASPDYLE

B1: ch3B6 (antibody, V domains shown)
VH: EVQLVESGGGLVQPGRSLKLSCAASGFTFSNYYMAWVRQAPKKGLEWVATINPSGTRTYYPDSVKGRFTLSRDSAKSSLYLQMNSLKSEDTATFYCARLYNNYAFDYWGQGVMVTVSS
VL: DVQMTQSPALAVSPGERVSISCRASESVSTLMHWYQQKPGQQPKLLIYGTSNLESGVPARFSGSGSGTDFTLNIDPVEADDTATYFCQQSWNDPPTFGGGTKLELK
no binding: all assays above
